Assay [1] addresses T1, human KIX domain of CBP (residues 587-673) with 36 extra N-terminal residues (human, UniProt Q92793 587-673, RED-tris-NTA dye bound non-covalently to the His tag).
T1 construct: synthetic codon-optimised gene in pET100/TOPO; construct 14.5 kDa; no cleavage is described; also called His-tagged KIX domain; source: E. coli BL21 DE3, purified (Histrap HP, Resource Q, Superdex 75); not shown: His6, N-terminal, kept
Briefly: MST; His-tagged KIX labelled with RED-tris-NTA, 20 nM; peptide varied; PBS-Tween (pH 7.4; 0.05% v/v Tween 20); Monolith NT. To be noted: both partners purified.

Assay [2] deals with T1, human KIX domain of CBP (residues …). The assay can be described thus: MST; as a1, KBM peptide binding to labelled KIX in the presence of the 9aaTAD peptide (its concentration not told). To be noted: both partners purified.

The record followed here is article PMC8990217, “DUX4 is a multifunctional factor priming human embryonic genome activation” (iScience, 2022).

T1 sequence (Q92793 587-673): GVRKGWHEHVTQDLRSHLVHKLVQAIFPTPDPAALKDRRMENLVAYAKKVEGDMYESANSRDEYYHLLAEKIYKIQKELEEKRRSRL

B1: DUX4 9aaTAD peptide for binding analysis (peptide)
peptide: CGLLLDELLASPEFLQQ
notes: source: synthetic peptide, bought: GenScript
Broadly, the Kd is the equilibrium constant for the complex coming apart. With B1, in assay [1], the Kd is about 200 nM.

B2: DUX4 KBM peptide for binding analysis (peptide)
peptide: EEEYRALLEE
notes: as for B1
With B2, the dissociation constant Kd in assay [1] was about 600 nM; in assay [2] it was about 1100 nM.
